T1: bovine thymus-derived HMGB1 (bovine, UniProt P10103 2-215)
T1 construct: Bought protein from tissue
T1 sequence (looked up): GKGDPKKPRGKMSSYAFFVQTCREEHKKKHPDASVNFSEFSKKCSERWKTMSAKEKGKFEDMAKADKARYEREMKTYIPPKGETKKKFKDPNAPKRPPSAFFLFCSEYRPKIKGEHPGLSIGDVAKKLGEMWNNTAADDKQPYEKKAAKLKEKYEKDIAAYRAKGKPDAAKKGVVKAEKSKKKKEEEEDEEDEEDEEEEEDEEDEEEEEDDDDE


Target: T1, bovine thymus-derived HMGB1
Experiment: ELISA on HMGB1-immobilized immunoplate, antibodies adjusted to an equal concentration; OD as % of EV007156 (L) + #10-22 chimera (H) (source of the HMGB1 not named for this figure)

Binder | binding result
#10-22 chimeric antibody (H chain) site substitution variant A94R (antibody, human IgG1, lambda, V domains shown, Variant H chain co-expressed with EV007156L in CHO-K1 cells) VH: AVQLVESGGGLVQPKESLKISCAASGFTFSNAAMYWVRQAPGKGLEWVARIRTKPNNYATYYADSVKGRFTISRDDSKSMVYLQMDNLKTEDTAMYYCTRPRRTEGIVSSGVDYWGQGVMVTVSS VL: YELTQPPSVSVSPGQTASITCSGDELPKRYAYWYQQKPGQSIVRVIYKDSERPSGIPERFSGSSSGTTATLTISGTQAEDEADYYCHSTYSDDKLPVFGGGTKLTVLG | binds
S76N (antibody, human IgG1, lambda, V domains shown, co-expressed with EV007156L in CHO-K1 cells; also called #10-22 chimeric antibody (H chain) site substitution variant S76N; copies: 2 + 2) VH: AVQLVESGGGLVQPKESLKISCAASGFTFSNAAMYWVRQAPGKGLEWVARIRTKPNNYATYYADSVKGRFTISRDDSKNMVYLQMDNLKTEDTAMYYCTAPRRTEGIVSSGVDYWGQGVMVTVSS VL: YELTQPPSVSVSPGQTASITCSGDELPKRYAYWYQQKPGQSIVRVIYKDSERPSGIPERFSGSSSGTTATLTISGTQAEDEADYYCHSTYSDDKLPVFGGGTKLTVLG | binds
M108L (antibody, human IgG1, lambda, co-expressed with EV007156L in CHO-K1 cells; also called #10-22 chimeric antibody (H chain) site substitution variant M108L; copies: 2 + 2) heavy: not shown light: YELTQPPSVSVSPGQTASITCSGDELPKRYAYWYQQKPGQSIVRVIYKDSERPSGIPERFSGSSSGTTATLTISGTQAEDEADYYCHSTYSDDKLPVFGGGTKLTVLGQPKAAPSVTLFPPSSEELQANKATLVCLISDFYPGAVTVAWKADSSPVKAGVETTTPSKQSNNKYAASSYLSLTPEQWKSHRSYSCQVTHEGSTVEKTVAPTECS | binds
N82bS (antibody, human IgG1, lambda, V domains shown, co-expressed with EV007156L in CHO-K1 cells; also called #10-22 chimeric antibody (H chain) site substitution variant N82bS; copies: 2 + 2) VH: AVQLVESGGGLVQPKESLKISCAASGFTFSNAAMYWVRQAPGKGLEWVARIRTKPNNYATYYADSVKGRFTISRDDSKSMVYLQMDSLKTEDTAMYYCTAPRRTEGIVSSGVDYWGQGVMVTVSS VL: YELTQPPSVSVSPGQTASITCSGDELPKRYAYWYQQKPGQSIVRVIYKDSERPSGIPERFSGSSSGTTATLTISGTQAEDEADYYCHSTYSDDKLPVFGGGTKLTVLG | binds
V78A (antibody, human IgG1, lambda, V domains shown, co-expressed with EV007156L in CHO-K1 cells; also called #10-22 chimeric antibody (H chain) site substitution variant V78A; copies: 2 + 2) VH: AVQLVESGGGLVQPKESLKISCAASGFTFSNAAMYWVRQAPGKGLEWVARIRTKPNNYATYYADSVKGRFTISRDDSKSMAYLQMDNLKTEDTAMYYCTAPRRTEGIVSSGVDYWGQGVMVTVSS VL: YELTQPPSVSVSPGQTASITCSGDELPKRYAYWYQQKPGQSIVRVIYKDSERPSGIPERFSGSSSGTTATLTISGTQAEDEADYYCHSTYSDDKLPVFGGGTKLTVLG | binds
M77T (antibody, human IgG1, lambda, V domains shown, co-expressed with EV007156L in CHO-K1 cells; also called #10-22 chimeric antibody (H chain) site substitution variant M77T; copies: 2 + 2) VH: AVQLVESGGGLVQPKESLKISCAASGFTFSNAAMYWVRQAPGKGLEWVARIRTKPNNYATYYADSVKGRFTISRDDSKSTVYLQMDNLKTEDTAMYYCTAPRRTEGIVSSGVDYWGQGVMVTVSS VL: YELTQPPSVSVSPGQTASITCSGDELPKRYAYWYQQKPGQSIVRVIYKDSERPSGIPERFSGSSSGTTATLTISGTQAEDEADYYCHSTYSDDKLPVFGGGTKLTVLG | binds
V107T (antibody, human IgG1, lambda, co-expressed with EV007156L in CHO-K1 cells; also called #10-22 chimeric antibody (H chain) site substitution variant V107T; copies: 2 + 2) heavy: not shown light: YELTQPPSVSVSPGQTASITCSGDELPKRYAYWYQQKPGQSIVRVIYKDSERPSGIPERFSGSSSGTTATLTISGTQAEDEADYYCHSTYSDDKLPVFGGGTKLTVLGQPKAAPSVTLFPPSSEELQANKATLVCLISDFYPGAVTVAWKADSSPVKAGVETTTPSKQSNNKYAASSYLSLTPEQWKSHRSYSCQVTHEGSTVEKTVAPTECS | binds
E16G (antibody, human IgG1, lambda, co-expressed with EV007156L in CHO-K1 cells; also called #10-22 chimeric antibody (H chain) site substitution variant E16G; copies: 2 + 2) heavy: not shown light: YELTQPPSVSVSPGQTASITCSGDELPKRYAYWYQQKPGQSIVRVIYKDSERPSGIPERFSGSSSGTTATLTISGTQAEDEADYYCHSTYSDDKLPVFGGGTKLTVLGQPKAAPSVTLFPPSSEELQANKATLVCLISDFYPGAVTVAWKADSSPVKAGVETTTPSKQSNNKYAASSYLSLTPEQWKSHRSYSCQVTHEGSTVEKTVAPTECS | binds
K15G (antibody, human IgG1, lambda, co-expressed with EV007156L in CHO-K1 cells; also called #10-22 chimeric antibody (H chain) site substitution variant K15G; copies: 2 + 2) heavy: not shown light: YELTQPPSVSVSPGQTASITCSGDELPKRYAYWYQQKPGQSIVRVIYKDSERPSGIPERFSGSSSGTTATLTISGTQAEDEADYYCHSTYSDDKLPVFGGGTKLTVLGQPKAAPSVTLFPPSSEELQANKATLVCLISDFYPGAVTVAWKADSSPVKAGVETTTPSKQSNNKYAASSYLSLTPEQWKSHRSYSCQVTHEGSTVEKTVAPTECS | binds
P41S (antibody, human IgG1, lambda, V domains shown, co-expressed with EV007156L in CHO-K1 cells; also called #10-22 chimeric antibody (H chain) site substitution variant P41S; copies: 2 + 2) VH: AVQLVESGGGLVQPKESLKISCAASGFTFSNAAMYWVRQASGKGLEWVARIRTKPNNYATYYADSVKGRFTISRDDSKSMVYLQMDNLKTEDTAMYYCTAPRRTEGIVSSGVDYWGQGVMVTVSS VL: YELTQPPSVSVSPGQTASITCSGDELPKRYAYWYQQKPGQSIVRVIYKDSERPSGIPERFSGSSSGTTATLTISGTQAEDEADYYCHSTYSDDKLPVFGGGTKLTVLG | binds
M89V (antibody, human IgG1, lambda, V domains shown, co-expressed with EV007156L in CHO-K1 cells; also called #10-22 chimeric antibody (H chain) site substitution variant M89V; copies: 2 + 2) VH: AVQLVESGGGLVQPKESLKISCAASGFTFSNAAMYWVRQAPGKGLEWVARIRTKPNNYATYYADSVKGRFTISRDDSKSMVYLQMDNLKTEDTAVYYCTAPRRTEGIVSSGVDYWGQGVMVTVSS VL: YELTQPPSVSVSPGQTASITCSGDELPKRYAYWYQQKPGQSIVRVIYKDSERPSGIPERFSGSSSGTTATLTISGTQAEDEADYYCHSTYSDDKLPVFGGGTKLTVLG | binds

More lines, now with the values ahead:

binding result | Binder
binds | D82aN (antibody, human IgG1, lambda, V domains shown, co-expressed with EV007156L in CHO-K1 cells; also called #10-22 chimeric antibody (H chain) site substitution variant D82aN; copies: 2 + 2) VH: AVQLVESGGGLVQPKESLKISCAASGFTFSNAAMYWVRQAPGKGLEWVARIRTKPNNYATYYADSVKGRFTISRDDSKSMVYLQMNNLKTEDTAMYYCTAPRRTEGIVSSGVDYWGQGVMVTVSS VL: YELTQPPSVSVSPGQTASITCSGDELPKRYAYWYQQKPGQSIVRVIYKDSERPSGIPERFSGSSSGTTATLTISGTQAEDEADYYCHSTYSDDKLPVFGGGTKLTVLG
binds | I20L (antibody, human IgG1, lambda, co-expressed with EV007156L in CHO-K1 cells; also called #10-22 chimeric antibody (H chain) site substitution variant I20L; copies: 2 + 2) heavy: not shown light: YELTQPPSVSVSPGQTASITCSGDELPKRYAYWYQQKPGQSIVRVIYKDSERPSGIPERFSGSSSGTTATLTISGTQAEDEADYYCHSTYSDDKLPVFGGGTKLTVLGQPKAAPSVTLFPPSSEELQANKATLVCLISDFYPGAVTVAWKADSSPVKAGVETTTPSKQSNNKYAASSYLSLTPEQWKSHRSYSCQVTHEGSTVEKTVAPTECS
binds | A1E (antibody, human IgG1, lambda, co-expressed with EV007156L in CHO-K1 cells; also called #10-22 chimeric antibody (H chain) site substitution variant A1E; copies: 2 + 2) heavy: not shown light: YELTQPPSVSVSPGQTASITCSGDELPKRYAYWYQQKPGQSIVRVIYKDSERPSGIPERFSGSSSGTTATLTISGTQAEDEADYYCHSTYSDDKLPVFGGGTKLTVLGQPKAAPSVTLFPPSSEELQANKATLVCLISDFYPGAVTVAWKADSSPVKAGVETTTPSKQSNNKYAASSYLSLTPEQWKSHRSYSCQVTHEGSTVEKTVAPTECS

Target: T1, bovine thymus-derived HMGB1
Experiment: ELISA on HMGB1-immobilized immunoplate, antibodies adjusted to an equal concentration; OD as % of #10-22 chimera (source of the HMGB1 not named for this figure)

binding result | Binder
binds | K42Q (antibody, human IgG1, lambda, V domains shown, co-expressed with the #10-22 chimeric antibody H chain in CHO-K1 cells; also called #10-22 chimeric antibody (L chain) site substitution variant K42Q) VH: AVQLVESGGGLVQPKESLKISCAASGFTFSNAAMYWVRQAPGKGLEWVARIRTKPNNYATYYADSVKGRFTISRDDSKSMVYLQMDNLKTEDTAMYYCTAPRRTEGIVSSGVDYWGQGVMVTVSS VL: YELIQPPSASVTLGNTVSITCSGDELPKRYAYWYQQKPDQSIVRVIYKDSERPSGISDRFSGSSSGTTATLTIRDTQAEDEADYYCHSTYSDDKLPVFGGGTKLTVLG
binds | D41G (antibody, human IgG1, lambda, V domains shown, co-expressed with the #10-22 chimeric antibody H chain in CHO-K1 cells; also called #10-22 chimeric antibody (L chain) site substitution variant D41G) VH: AVQLVESGGGLVQPKESLKISCAASGFTFSNAAMYWVRQAPGKGLEWVARIRTKPNNYATYYADSVKGRFTISRDDSKSMVYLQMDNLKTEDTAMYYCTAPRRTEGIVSSGVDYWGQGVMVTVSS VL: YELIQPPSASVTLGNTVSITCSGDELPKRYAYWYQQKPGKSIVRVIYKDSERPSGISDRFSGSSSGTTATLTIRDTQAEDEADYYCHSTYSDDKLPVFGGGTKLTVLG
binds | R76S (antibody, human IgG1, lambda, V domains shown, co-expressed with the #10-22 chimeric antibody H chain in CHO-K1 cells; also called #10-22 chimeric antibody (L chain) site substitution variant R76S) VH: AVQLVESGGGLVQPKESLKISCAASGFTFSNAAMYWVRQAPGKGLEWVARIRTKPNNYATYYADSVKGRFTISRDDSKSMVYLQMDNLKTEDTAMYYCTAPRRTEGIVSSGVDYWGQGVMVTVSS VL: YELIQPPSASVTLGNTVSITCSGDELPKRYAYWYQQKPDKSIVRVIYKDSERPSGISDRFSGSSSGTTATLTISDTQAEDEADYYCHSTYSDDKLPVFGGGTKLTVLG
binds | D60E (antibody, human IgG1, lambda, V domains shown, co-expressed with the #10-22 chimeric antibody H chain in CHO-K1 cells; also called #10-22 chimeric antibody (L chain) site substitution variant D60E) VH: AVQLVESGGGLVQPKESLKISCAASGFTFSNAAMYWVRQAPGKGLEWVARIRTKPNNYATYYADSVKGRFTISRDDSKSMVYLQMDNLKTEDTAMYYCTAPRRTEGIVSSGVDYWGQGVMVTVSS VL: YELIQPPSASVTLGNTVSITCSGDELPKRYAYWYQQKPDKSIVRVIYKDSERPSGISERFSGSSSGTTATLTIRDTQAEDEADYYCHSTYSDDKLPVFGGGTKLTVLG
binds | S59P (antibody, human IgG1, lambda, V domains shown, co-expressed with the #10-22 chimeric antibody H chain in CHO-K1 cells; also called #10-22 chimeric antibody (L chain) site substitution variant S59P) VH: AVQLVESGGGLVQPKESLKISCAASGFTFSNAAMYWVRQAPGKGLEWVARIRTKPNNYATYYADSVKGRFTISRDDSKSMVYLQMDNLKTEDTAMYYCTAPRRTEGIVSSGVDYWGQGVMVTVSS VL: YELIQPPSASVTLGNTVSITCSGDELPKRYAYWYQQKPDKSIVRVIYKDSERPSGIPDRFSGSSSGTTATLTIRDTQAEDEADYYCHSTYSDDKLPVFGGGTKLTVLG
binds | D77G (antibody, human IgG1, lambda, V domains shown, co-expressed with the #10-22 chimeric antibody H chain in CHO-K1 cells; also called #10-22 chimeric antibody (L chain) site substitution variant D77G) VH: AVQLVESGGGLVQPKESLKISCAASGFTFSNAAMYWVRQAPGKGLEWVARIRTKPNNYATYYADSVKGRFTISRDDSKSMVYLQMDNLKTEDTAMYYCTAPRRTEGIVSSGVDYWGQGVMVTVSS VL: YELIQPPSASVTLGNTVSITCSGDELPKRYAYWYQQKPDKSIVRVIYKDSERPSGISDRFSGSSSGTTATLTIRGTQAEDEADYYCHSTYSDDKLPVFGGGTKLTVLG
